Data from article PMC2791442, “Three Dimensional Structure of the MqsR:MqsA Complex: A Novel TA Pair Comprised of a Toxin Homologous to RelE and an Antitoxin with Unique Properties” (PLoS Pathogens, 2009).

What was measured:
[1] = target: T1, MqsR, his6-tag cleaved, co-expressed with MqsA-N (E. coli, UniProt Q46865 1-98); test: SEC + other: dynamic light scattering; co-expressed and co-purified complex on a size exclusion column (Superdex 75 26/60 for MqsR:MqsA-F); oligomeric state confirmed by dynamic light scattering; details: both partners purified
T1 construct: MqsR (YgiU, b3022) toxin of Escherichia coli, 98 residues; 1-97 seen in the first complex of the crystal; also called YgiU; B3022; not shown: His6, N-terminal, cleaved
T1 sequence (looked up): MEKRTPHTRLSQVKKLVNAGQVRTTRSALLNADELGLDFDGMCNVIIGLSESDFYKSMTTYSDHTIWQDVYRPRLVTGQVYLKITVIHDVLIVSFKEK

[2] = target: T2, MqsR (his-tagged), co-expressed with full-length MqsA (E. coli, UniProt Q46865 1-98); test: as above; details: both partners purified
T2 construct: MqsR (YgiU, b3022) toxin of Escherichia coli, 98 residues; also called YgiU; B3022; not shown: His6, N-terminal, kept
T2 sequence (looked up): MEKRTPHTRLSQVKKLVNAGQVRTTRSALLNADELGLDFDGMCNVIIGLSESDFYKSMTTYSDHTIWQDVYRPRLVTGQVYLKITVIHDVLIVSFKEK

[3] = target: the molecule itself; test: as above
[4] = target: the molecule itself; test: crystal structure; MqsA-F, 2.15 Å, molecular replacement; sitting drop at 4°C, 75 mM Bis-Tris pH 5.5, 150 mM MgCl2, 19% PEG3350; two molecules in the asymmetric unit

B1: MqsA N-terminal domain (MqsA-N), untagged, co-expressed with MqsR (domain or fragment, E. coli, UniProt Q46864 1-76, looked up)
chain: MKCPVCHQGEMVSGIKDIPYTFRGRKTVLKGIHGLYCVHCEESIMNKEESDAFMAQVKAFRASVNAETVAPEFIVK
notes: MqsA (YgiT, b3021) antitoxin of Escherichia coli, N-terminal domain, residues 1-76; Untagged pCA21a vector; source: E. coli BL21 (DE3), co-expressed with MqsR, purified (his6-tag of MqsR, thrombin cleavage, subtraction his6-tag, SEC)
[1]
  stoichiometry N: 1 MqsA-N per MqsR (1:1 heterodimer)

B2: Full-length MqsA (MqsA-F), untagged, co-expressed with MqsR (natural protein, E. coli, UniProt Q46864 1-131, looked up)
chain: MKCPVCHQGEMVSGIKDIPYTFRGRKTVLKGIHGLYCVHCEESIMNKEESDAFMAQVKAFRASVNAETVAPEFIVKVRKKLSLTQKEASEIFGGGVNAFSRYEKGNAQPHPSTIKLLRVLDKHPELLNEIR
notes: MqsA (YgiT, b3021) antitoxin of Escherichia coli, residues 1-131; Two copies stand in the MqsR:MqsA2:MqsR complex; also called YgiT; B3021; source: co-expressed with his-tagged MqsR, co-purified, SEC
[2]
  stoichiometry N: 1 MqsA-F per MqsR (2:2 complex)
[3]
  binding result: binds

B3: Full-length MqsA (MqsA-F), his6-tag cleaved (natural protein, E. coli, UniProt Q46864 1-131, looked up)
chain: MKCPVCHQGEMVSGIKDIPYTFRGRKTVLKGIHGLYCVHCEESIMNKEESDAFMAQVKAFRASVNAETVAPEFIVKVRKKLSLTQKEASEIFGGGVNAFSRYEKGNAQPHPSTIKLLRVLDKHPELLNEIR
modifications: Gln108 methylated at N5
notes: MqsA (YgiT, b3021) antitoxin of Escherichia coli, residues 1-131; Modified pET28a with a TEV site; also called YgiT; B3021; source: E. coli One Shot BL21 (DE3), purified (his6-tag, TEV cleavage, subtraction his6-tag, SEC); not shown: His6, N-terminal, cleaved
[4]
  binding result: binds
